Patent US20120316071A1 (published 2012)

T1: rHuman Erythropoietin R/Fc Chimera, CF (R&D Systems Cat#963-ER) (human, UniProt P19235 25-250)
T1 construct: Bought recombinant protein; also called EPO R; EPO R/Fc
T1 sequence (looked up): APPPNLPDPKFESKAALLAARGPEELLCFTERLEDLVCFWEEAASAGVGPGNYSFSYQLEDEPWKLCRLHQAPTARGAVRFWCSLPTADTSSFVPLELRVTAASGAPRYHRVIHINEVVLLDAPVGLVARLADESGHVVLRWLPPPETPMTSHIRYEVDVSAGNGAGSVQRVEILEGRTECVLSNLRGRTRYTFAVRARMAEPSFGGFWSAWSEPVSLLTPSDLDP


Key:
[1] = target: T2, rHuman EGF R/Fc Chimera, CF (R&D Systems Cat#344-ER) (human, UniProt P00533 25-645); assay: ECL multispot (MSD) binding assay, antigen spotted on plate;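 further: purified Fab incubated 1 h at 20 °C on antigen spots, detected with TAG-labelled antibody, electrochemiluminescence compared with each well's blank, signal-to-blank ratio ≥4 counted as hit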
T2 construct: Bought recombinant protein; also called epidermal growth factor receptor

[2] = target: T3, rHuman CD44/Fc Chimera, CF (R&D Systems Cat#3660-CD) (human, UniProt P16070 21-220); assay: as above
T3 construct: Bought recombinant protein

[3] = target: T4, rHuman IGF-1 sR, (IGF-1 sR), CF (R&D Systems Cat#391-GR) (human, UniProt P08069 31-932); assay: as above
T4 construct: Bought recombinant soluble receptor; also called insulin-like growth factor-1 soluble receptor

[4] = target: T5, rHuman ErbB2/Fc Chimera, CF (R&D Systems Cat#1129-ER) (human, UniProt P04626 23-652); assay: as above
T5 construct: Bought recombinant protein; also called human epidermal growth factor 2 receptor

[5] = target: T6, Recombinant Human DLL4 (R&D Systems Cat#1506-D4/CF) (human, UniProt Q9NR61 27-524); assay: as above
T6 construct: Bought recombinant protein; also called delta-like protein 4; rHuman DLL4

[6] = target: T7, rHuman HGF R/c-MET/Fc Chimera, CF (R&D Systems Cat#358-MT/CF) (human, UniProt P08581 25-932); assay: as above
T7 construct: Bought recombinant protein; also called HGF R/Fc; hepatocyte growth factor receptor
T7 sequence (P08581 25-932, change not shown): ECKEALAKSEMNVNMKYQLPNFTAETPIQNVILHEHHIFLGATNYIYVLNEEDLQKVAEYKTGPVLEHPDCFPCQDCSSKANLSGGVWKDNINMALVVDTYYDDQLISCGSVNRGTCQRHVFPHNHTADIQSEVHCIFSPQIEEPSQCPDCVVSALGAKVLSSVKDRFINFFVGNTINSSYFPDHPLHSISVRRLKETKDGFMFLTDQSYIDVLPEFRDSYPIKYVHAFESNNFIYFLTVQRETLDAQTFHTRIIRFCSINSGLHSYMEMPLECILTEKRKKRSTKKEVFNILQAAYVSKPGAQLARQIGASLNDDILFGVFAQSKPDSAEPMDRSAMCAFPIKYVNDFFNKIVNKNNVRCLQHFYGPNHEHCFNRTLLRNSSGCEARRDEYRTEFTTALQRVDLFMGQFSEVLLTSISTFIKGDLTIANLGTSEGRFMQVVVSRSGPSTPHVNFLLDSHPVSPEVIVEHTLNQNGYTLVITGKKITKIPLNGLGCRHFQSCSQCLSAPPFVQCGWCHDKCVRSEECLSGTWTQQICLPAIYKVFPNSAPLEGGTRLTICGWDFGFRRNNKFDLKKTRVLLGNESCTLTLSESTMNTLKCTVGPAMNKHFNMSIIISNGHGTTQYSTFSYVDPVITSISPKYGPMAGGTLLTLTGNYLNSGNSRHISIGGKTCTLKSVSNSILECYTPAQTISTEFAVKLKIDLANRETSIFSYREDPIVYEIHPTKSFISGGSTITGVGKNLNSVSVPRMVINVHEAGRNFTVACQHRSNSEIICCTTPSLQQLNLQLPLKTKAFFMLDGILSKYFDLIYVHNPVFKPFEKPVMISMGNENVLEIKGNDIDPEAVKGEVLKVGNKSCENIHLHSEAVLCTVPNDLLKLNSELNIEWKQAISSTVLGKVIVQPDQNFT

[7] = target: T1, rHuman Erythropoietin R/Fc Chimera, CF …; assay: as above
[8] = target: T8, rHuman Notch-1/Fc Chimera, CF (R&D Systems Cat#3647-TK) (human, UniProt P46531 19-526); assay: as above
T8 construct: Bought recombinant protein

[9] = target: T9, rHuman P-Cadherin/Fc Chimera, CF (R&D Systems Cat#861-PC) (human, UniProt P22223 108-654); assay: as above
T9 construct: Bought recombinant protein

[10] = target: T10, Recombinant Human DLL4 (delta-like protein 4) (human, UniProt Q9NR61 27-524); assay: ECL (MSD) binding assay, DLL4 immobilised, Fab at 10 nM
T10 construct: also called rHuman DLL4; Delta-like 4

| ECL signal [1] | ECL signal [2] | ECL signal [3] | ECL signal [4] | ECL signal [5] | ECL signal [6] | ECL signal [7] | ECL signal [8] | ECL signal [9] | Signal [10 nM Fab] [10] | Binder |
| --- | --- | --- | --- | --- | --- | --- | --- | --- | --- | --- |
| 438 | 471 | 407 | 479 | 154000 | 429 | 596 | 510 | 451 | – | Fab VH1-46_IGHD6-6*01_IGHJ1*01 S102A/S103P/S104F/H111F (APFF) & L6_IGKJ1*01 S31D (Fab, V domains shown, Tested as Fab (CH1 with His6/Flag tags, kappa CL) made in E. coli; also called APFF / S31D) VH: QVQLVQSGAEVKKPGASVKVSCKASGYTFTSYYMHWVRQAPGQGLEWMGIINPSGGSTSYAQKFQGRVTMTRDTSTSTVYMELSSLRSEDTAVYYCAREEYAPFSAEYFQFWGQGTLVTVSS VL: EIVLTQSPATLSLSPGERATLSCRASQSVSDYLAWYQQKPGQAPRLLIYDASNRATGIPARFSGSGSGTDFTLTISSLEPEDFAVYYCQQRSNWPPWTFGQGTKVEIKR |
| – | – | – | – | – | – | – | – | – | 13500 | Fab VH1-46_IGHD6-6*01_IGHJ1*01 S102A/S103P/S104F/H111F & L6_IGKJ1*01 (Fab, V domains shown, also called H:APFF & L:wt; APFF) VH: QVQLVQSGAEVKKPGASVKVSCKASGYTFTSYYMHWVRQAPGQGLEWMGIINPSGGSTSYAQKFQGRVTMTRDTSTSTVYMELSSLRSEDTAVYYCAREEYAPFSAEYFQFWGQGTLVTVSS VL: not shown |
| 342 | 256 | 267 | 295 | 189000 | 280 | 599 | 349 | 369 | – | Fab VH1-46_IGHD6-6*01_IGHJ1*01 S102A/S103P/S104F/H111F (APFF) & L6_IGKJ1*01 S31F (Fab, V domains shown, Tested as Fab (CH1 with His6/Flag tags, kappa CL) made in E. coli; also called APFF / S31F) VH: QVQLVQSGAEVKKPGASVKVSCKASGYTFTSYYMHWVRQAPGQGLEWMGIINPSGGSTSYAQKFQGRVTMTRDTSTSTVYMELSSLRSEDTAVYYCAREEYAPFSAEYFQFWGQGTLVTVSS VL: EIVLTQSPATLSLSPGERATLSCRASQSVSFYLAWYQQKPGQAPRLLIYDASNRATGIPARFSGSGSGTDFTLTISSLEPEDFAVYYCQQRSNWPPWTFGQGTKVEIKR |
| – | – | – | – | – | – | – | – | – | 13200 | Fab VH1-46_IGHD6-6*01_IGHJ1*01 S102A/S103P/S104F/H111F & L6_IGKJ1*01 A55T (Fab, V domains shown, also called APFF & L6_IGKJ1*01 A55T) VH: QVQLVQSGAEVKKPGASVKVSCKASGYTFTSYYMHWVRQAPGQGLEWMGIINPSGGSTSYAQKFQGRVTMTRDTSTSTVYMELSSLRSEDTAVYYCAREEYAPFSAEYFQFWGQGTLVTVSS VL: EIVLTQSPATLSLSPGERATLSCRASQSVSSYLAWYQQKPGQAPRLLIYDASNRTTGIPARFSGSGSGTDFTLTISSLEPEDFAVYYCQQRSNWPPWTFGQGTKVEIKR |
| – | – | – | – | – | – | – | – | – | 2850 | Fab VH1-46_IGHD6-6*01_IGHJ1*01 S102A/S103P/S104F/H111F & L6_IGKJ1*01 A51T (Fab, V domains shown, also called APFF & L6_IGKJ1*01 A51T) VH: QVQLVQSGAEVKKPGASVKVSCKASGYTFTSYYMHWVRQAPGQGLEWMGIINPSGGSTSYAQKFQGRVTMTRDTSTSTVYMELSSLRSEDTAVYYCAREEYAPFSAEYFQFWGQGTLVTVSS VL: EIVLTQSPATLSLSPGERATLSCRASQSVSSYLAWYQQKPGQAPRLLIYDTSNRATGIPARFSGSGSGTDFTLTISSLEPEDFAVYYCQQRSNWPPWTFGQGTKVEIKR |
| 373 | 426 | 350 | 307 | 221000 | 352 | 504 | 421 | 480 | – | Fab VH1-46_IGHD6-6*01_IGHJ1*01 S102A/S103P/S104F/H111F (APFF) & L6_IGKJ1*01 S31H (Fab, V domains shown, Tested as Fab (CH1 with His6/Flag tags, kappa CL) made in E. coli; also called APFF / S31H) VH: QVQLVQSGAEVKKPGASVKVSCKASGYTFTSYYMHWVRQAPGQGLEWMGIINPSGGSTSYAQKFQGRVTMTRDTSTSTVYMELSSLRSEDTAVYYCAREEYAPFSAEYFQFWGQGTLVTVSS VL: EIVLTQSPATLSLSPGERATLSCRASQSVSHYLAWYQQKPGQAPRLLIYDASNRATGIPARFSGSGSGTDFTLTISSLEPEDFAVYYCQQRSNWPPWTFGQGTKVEIKR |
| 363 | 384 | 335 | 300 | 176000 | 288 | 509 | 374 | 360 | – | Fab VH1-46_IGHD6-6*01_IGHJ1*01 S102A/S103P/S104F/H111F (APFF) & L6_IGKJ1*01 S31V (Fab, V domains shown, Tested as Fab (CH1 with His6/Flag tags, kappa CL) made in E. coli; also called APFF / S31V) VH: QVQLVQSGAEVKKPGASVKVSCKASGYTFTSYYMHWVRQAPGQGLEWMGIINPSGGSTSYAQKFQGRVTMTRDTSTSTVYMELSSLRSEDTAVYYCAREEYAPFSAEYFQFWGQGTLVTVSS VL: EIVLTQSPATLSLSPGERATLSCRASQSVSVYLAWYQQKPGQAPRLLIYDASNRATGIPARFSGSGSGTDFTLTISSLEPEDFAVYYCQQRSNWPPWTFGQGTKVEIKR |
| 488 | 466 | 404 | 372 | 53300 | 431 | 594 | 461 | 493 | – | Fab VH1-46_IGHD6-6*01_IGHJ1*01 S102A/S103P/S104F/H111F (APFF) & L6_IGKJ1*01 S31P (Fab, V domains shown, Tested as Fab (CH1 with His6/Flag tags, kappa CL) made in E. coli; also called APFF / S31P) VH: QVQLVQSGAEVKKPGASVKVSCKASGYTFTSYYMHWVRQAPGQGLEWMGIINPSGGSTSYAQKFQGRVTMTRDTSTSTVYMELSSLRSEDTAVYYCAREEYAPFSAEYFQFWGQGTLVTVSS VL: EIVLTQSPATLSLSPGERATLSCRASQSVSPYLAWYQQKPGQAPRLLIYDASNRATGIPARFSGSGSGTDFTLTISSLEPEDFAVYYCQQRSNWPPWTFGQGTKVEIKR |
| 380 | 488 | 445 | 352 | 167000 | 293 | 573 | 474 | 510 | – | Fab VH1-46_IGHD6-6*01_IGHJ1*01 S102A/S103P/S104F/H111F (APFF) & L6_IGKJ1*01 S31M (Fab, V domains shown, Tested as Fab (CH1 with His6/Flag tags, kappa CL) made in E. coli; also called APFF / S31M) VH: QVQLVQSGAEVKKPGASVKVSCKASGYTFTSYYMHWVRQAPGQGLEWMGIINPSGGSTSYAQKFQGRVTMTRDTSTSTVYMELSSLRSEDTAVYYCAREEYAPFSAEYFQFWGQGTLVTVSS VL: EIVLTQSPATLSLSPGERATLSCRASQSVSMYLAWYQQKPGQAPRLLIYDASNRATGIPARFSGSGSGTDFTLTISSLEPEDFAVYYCQQRSNWPPWTFGQGTKVEIKR |
| 375 | 371 | 405 | 288 | 155000 | 319 | 427 | 365 | 346 | – | Fab VH1-46_IGHD6-6*01_IGHJ1*01 S102A/S103P/S104F/H111F (APFF) & L6_IGKJ1*01 S31L (Fab, V domains shown, Tested as Fab (CH1 with His6/Flag tags, kappa CL) made in E. coli; also called APFF / S31L) VH: QVQLVQSGAEVKKPGASVKVSCKASGYTFTSYYMHWVRQAPGQGLEWMGIINPSGGSTSYAQKFQGRVTMTRDTSTSTVYMELSSLRSEDTAVYYCAREEYAPFSAEYFQFWGQGTLVTVSS VL: EIVLTQSPATLSLSPGERATLSCRASQSVSLYLAWYQQKPGQAPRLLIYDASNRATGIPARFSGSGSGTDFTLTISSLEPEDFAVYYCQQRSNWPPWTFGQGTKVEIKR |
| 363 | 506 | 365 | 222 | 174000 | 303 | 500 | 421 | 444 | – | Fab VH1-46_IGHD6-6*01_IGHJ1*01 S102A/S103P/S104F/H111F (APFF) & L6_IGKJ1*01 S31I (Fab, V domains shown, Tested as Fab (CH1 with His6/Flag tags, kappa CL) made in E. coli; also called APFF / S31I) VH: QVQLVQSGAEVKKPGASVKVSCKASGYTFTSYYMHWVRQAPGQGLEWMGIINPSGGSTSYAQKFQGRVTMTRDTSTSTVYMELSSLRSEDTAVYYCAREEYAPFSAEYFQFWGQGTLVTVSS VL: EIVLTQSPATLSLSPGERATLSCRASQSVSIYLAWYQQKPGQAPRLLIYDASNRATGIPARFSGSGSGTDFTLTISSLEPEDFAVYYCQQRSNWPPWTFGQGTKVEIKR |
| – | – | – | – | – | – | – | – | – | 4230 | Fab VH1-46_IGHD6-6*01_IGHJ1*01 S102A/S103P/S104F/H111F & L6_IGKJ1*01 D50A (Fab, V domains shown, also called APFF & L6_IGKJ1*01 D50A) VH: QVQLVQSGAEVKKPGASVKVSCKASGYTFTSYYMHWVRQAPGQGLEWMGIINPSGGSTSYAQKFQGRVTMTRDTSTSTVYMELSSLRSEDTAVYYCAREEYAPFSAEYFQFWGQGTLVTVSS VL: EIVLTQSPATLSLSPGERATLSCRASQSVSSYLAWYQQKPGQAPRLLIYAASNRATGIPARFSGSGSGTDFTLTISSLEPEDFAVYYCQQRSNWPPWTFGQGTKVEIKR |
